Laboratory results taken from patent US20250270289.

Target: Cav(pnY)GFP
Sequence (Q03135 whole entry): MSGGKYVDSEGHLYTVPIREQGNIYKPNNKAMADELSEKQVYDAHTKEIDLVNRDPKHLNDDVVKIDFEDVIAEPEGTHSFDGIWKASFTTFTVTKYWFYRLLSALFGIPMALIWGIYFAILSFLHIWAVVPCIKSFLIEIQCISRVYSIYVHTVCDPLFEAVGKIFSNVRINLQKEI

B1: protein Tyr phosphatase 1B (protein)
chain: MEMEKEFEQIDKSGSWAAIYQDIRHEASDFPCRVAKLPKNKNRNRYRDVSPFDHSRIKLHQEDNDYINASLIKMEEAQRSYILTQGPLPNTCGHFWEMVWEQKSRGVVMLNRVMEKGSLKCAQYWPQKEEKEMIFEDTNLKLTLISEDIKSYYTVRQLELENLTTQETREILHFHYTTWPDFGVPESPASFLNFLFKVRESGSLSPEHGPVVVHCSAGIGRSGTFCLADTCLLLMDKRKDPSSVDIKKVLLEMRKFRMGLIQTADQLRFSYLAVIEGAKFIMGDSSVQDQWKELSHEDLEPPPEHIPPPPRPPKRILEPHN
B1 was tested, and the “dephosphorylation of pnY (Western blot with phospho-caveolin antibody)” value was “Cav(pnY)GFP was stable in buffered conditions, but dephosphorylated in a time and concentration dependent fashion” and the “dephosphorylation of pnY, seen as loss of the phospho-caveolin antibody signal in a Western blot” value was “IB:pCav band present with PTP1B buffer alone, absent with PTP1B buffer + enzyme; total protein band present in both lanes, faint in the enzyme lane”.

B2: calf-intestinal alkaline phosphatase (protein)
chain: LVPVEEEDPAFWNRQAAQALDVAKKLQPIQTAAKNVILFLGDGMGVPTVTATRILKGQMNGKLGPETPLAMDQFPYVALSKTYNVDRQVPDSAGTATAYLCGVKGNYRTIGVSAAARYNQCKTTRGNEVTSVMNRAKKAGKSVGVVTTTRVQHASPAGAYAHTVNRNWYSDADLPADAQMNGCQDIAAQLVNNMDIDVILGGGRKYMFPVGTPDPEYPDDASVNGVRKRKQNLVQAWQAKHQGAQYVWNRTALLQAADDSSVTHLMGLFEPADMKYNVQQDHTKDPTLQEMTEVALRVVSRNPRGFYLFVEGGRIDHGHHDDKAYMALTEAGMFDNAIAKANELTSELDTLILVTADHSHVFSFGGYTLRGTSIFGLAPSKALDSKSYTSILYGNGPGYALGGGSRPDVNDSTSEDPSYQQQAAVPQASETHGGEDVAVFARGPQAHLVHGVEEETFVAHIMAFAGCVEPYTDCNLPAPTTATSIPD
In the case of B2, the “dephosphorylation of pnY (Western blot with phospho-caveolin antibody)” value is reported as “Cav(pnY)GFP was stable in buffered conditions, but dephosphorylated in a time and concentration dependent fashion” and the “dephosphorylation of pnY, seen as loss of the phospho-caveolin antibody signal in a Western blot” value is reported as “IB:pCav band present with CIP buffer alone, absent with CIP buffer + enzyme; total protein band present in both lanes”.
